Molecular target: anti-HRP antibody
Test: release of labelled peptide L1 from anti-HRP antibody in solution, HRP concentration varied; released peptide separated and read by fluorescence

EC50 (read off the curve): 900 nM
Substance: HRP (from UniProt P00433 31-338) (enzyme)
